Assay results from patent publication US20120135923A1, “Use of Melanocortins to Treat Dyslipidemia” (IPSEN PHARMA, S.A.S., priority 2009, published 2012).
Bridge positions count the residues as written; N and C are the ends. Square brackets hold non-standard residues; d marks the D form. Ends that are not written are not given here. d2Nal = N[C@H](Cc1ccc2ccccc2c1)C(=O)O; Bta = N[C@@H](Cc1csc2ccccc12)C(=O)O; hArg = N=C(N)NCCCC[C@H](N)C(=O)O; Pen = CC(C)(S)[C@H](N)C(=O)O; Nle = CCCC[C@H](N)C(=O)O; Aib = CC(C)(N)C(=O)O; Ava = NCCCCC(=O)O; GABA = NCCCC(=O)O; βAla = NCCC(=O)O

B1: Ac-Nle-c(Cys-His-D-Phe-Arg-Trp-Apn-Cys)-NH2 (peptide)
peptide: Ac-[Nle]CH[dF]RW[Ava]C-NH2
modifications: disulfide 2-8
SMILES: CCCC[C@H](NC(C)=O)C(=O)N[C@H]1CSSC[C@@H](C(N)=O)NC(=O)CCCCNC(=O)[C@H](Cc2c[nH]c3ccccc23)NC(=O)[C@H](CCCNC(=N)N)NC(=O)[C@@H](Cc2ccccc2)NC(=O)[C@H](Cc2c[nH]cn2)NC1=O
B2: Ac-D-Arg-c(Cys-His-D-Phe-Arg-Trp-Gaba-Pen)-NH2 (peptide)
peptide: Ac-[dR]CH[dF]RW[GABA][Pen]-NH2
modifications: disulfide 2-8
SMILES: CC(=O)N[C@H](CCCNC(=N)N)C(=O)N[C@H]1CSSC(C)(C)[C@@H](C(N)=O)NC(=O)CCCNC(=O)[C@H](Cc2c[nH]c3ccccc23)NC(=O)[C@H](CCCNC(=N)N)NC(=O)[C@@H](Cc2ccccc2)NC(=O)[C@H](Cc2c[nH]cn2)NC1=O
B3: Ac-c(Cys-Glu-His-D-2-Nal-Arg-Bal-Ala-Cys)-Pro-Pro-Lys-Asp-β-Ala-Tyr-Aib-Arg-Lys-Lys-Arg-Arg-Gln-Arg-Arg-Arg-NH2 (peptide)
peptide: Ac-CEH[d2Nal]R[Bta]ACPPKD[βAla]Y[Aib]RKKRRQRRR-NH2
modifications: disulfide 1-8
SMILES: CC(=O)N[C@H]1CSSC[C@@H](C(=O)N2CCC[C@H]2C(=O)N2CCC[C@H]2C(=O)N[C@@H](CCCCN)C(=O)N[C@@H](CC(=O)O)C(=O)NCCC(=O)N[C@@H](Cc2ccc(O)cc2)C(=O)NC(C)(C)C(=O)N[C@@H](CCCNC(=N)N)C(=O)N[C@@H](CCCCN)C(=O)N[C@@H](CCCCN)C(=O)N[C@@H](CCCNC(=N)N)C(=O)N[C@@H](CCCNC(=N)N)C(=O)N[C@@H](CCC(N)=O)C(=O)N[C@@H](CCCNC(=N)N)C(=O)N[C@@H](CCCNC(=N)N)C(=O)N[C@@H](CCCNC(=N)N)C(N)=O)NC(=O)[C@H](C)NC(=O)[C@H](Cc2csc3ccccc23)NC(=O)[C@H](CCCNC(=N)N)NC(=O)[C@@H](Cc2ccc3ccccc3c2)NC(=O)[C@H](Cc2c[nH]cn2)NC(=O)[C@H](CCC(=O)O)NC1=O
B4: Ac-Nle-c(Cys-D-Leu-His-D-Phe-Arg-Trp-Cys)-NH2 (peptide)
peptide: Ac-[Nle]C[dL]H[dF]RWC-NH2
modifications: disulfide 2-8
SMILES: CCCC[C@H](NC(C)=O)C(=O)N[C@H]1CSSC[C@@H](C(N)=O)NC(=O)[C@H](Cc2c[nH]c3ccccc23)NC(=O)[C@H](CCCNC(=N)N)NC(=O)[C@@H](Cc2ccccc2)NC(=O)[C@H](Cc2c[nH]cn2)NC(=O)[C@@H](CC(C)C)NC1=O
B5: Ac-c(Cys-Glu-His-D-2-Nal-Arg-Bal-Ala-Cys)-Pro-Pro-Lys-Asp-β-Ala-Tyr-Gly-Arg-Lys-Lys-Arg-Arg-Gln-Arg-Arg-Arg-NH2 (peptide)
peptide: CEHXRXACPPKDXYGRKKRRQRRR
modifications: N-terminal acetyl; X4=D-2-Nal; X6=Bal; X13=β-Ala; Cys1-Cys8 disulfide; C-terminal amide
B6: Nle-c(Cys-His-D-Phe-Arg-Trp-Apn-Cys)-NH2 (peptide)
peptide: [Nle]CH[dF]RW[Ava]C-NH2
modifications: disulfide 2-8; N-terminus assumed
SMILES: CCCC[C@H](N)C(=O)N[C@H]1CSSC[C@@H](C(N)=O)NC(=O)CCCCNC(=O)[C@H](Cc2c[nH]c3ccccc23)NC(=O)[C@H](CCCNC(=N)N)NC(=O)[C@@H](Cc2ccccc2)NC(=O)[C@H](Cc2c[nH]cn2)NC1=O
B7: Ac-Arg-c(Cys-His-D-Phe-Arg-Trp-Gaba-Pen)-NH2 (peptide)
peptide: Ac-RCH[dF]RW[GABA][Pen]-NH2
modifications: disulfide 2-8
SMILES: CC(=O)N[C@@H](CCCNC(=N)N)C(=O)N[C@H]1CSSC(C)(C)[C@@H](C(N)=O)NC(=O)CCCNC(=O)[C@H](Cc2c[nH]c3ccccc23)NC(=O)[C@H](CCCNC(=N)N)NC(=O)[C@@H](Cc2ccccc2)NC(=O)[C@H](Cc2c[nH]cn2)NC1=O

Tests used:
[1] = biological target: hMC4-R (human) (UniProt P32245); test: cell-based or functional assay
[2] = biological target: hMC5-R (human) (UniProt P33032); test: cell-based or functional assay
[3] = biological target: hMC1-R (human) (UniProt Q01726); test: cell-based or functional assay
[4] = biological target: hMC3-R (human) (UniProt P41968); test: cell-based or functional assay
[5] = biological target: human melanocortin receptor subtype 5 (hMC5-R) (human), P33032; test: [125I]-NDP-α-MSH competition, membranes
Chain of human melanocortin receptor subtype 5 (hMC5-R) (human), P33032 (P33032 whole entry): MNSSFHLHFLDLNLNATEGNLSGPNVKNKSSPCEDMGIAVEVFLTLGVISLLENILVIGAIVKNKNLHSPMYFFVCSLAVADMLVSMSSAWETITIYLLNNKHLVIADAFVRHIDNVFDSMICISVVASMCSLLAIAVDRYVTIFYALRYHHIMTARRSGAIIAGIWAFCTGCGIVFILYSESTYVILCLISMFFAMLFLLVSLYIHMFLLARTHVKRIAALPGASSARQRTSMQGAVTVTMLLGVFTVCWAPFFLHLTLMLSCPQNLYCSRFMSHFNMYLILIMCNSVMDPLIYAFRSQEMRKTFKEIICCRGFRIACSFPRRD

Chain of hMC1-R (human) (Q01726 whole entry): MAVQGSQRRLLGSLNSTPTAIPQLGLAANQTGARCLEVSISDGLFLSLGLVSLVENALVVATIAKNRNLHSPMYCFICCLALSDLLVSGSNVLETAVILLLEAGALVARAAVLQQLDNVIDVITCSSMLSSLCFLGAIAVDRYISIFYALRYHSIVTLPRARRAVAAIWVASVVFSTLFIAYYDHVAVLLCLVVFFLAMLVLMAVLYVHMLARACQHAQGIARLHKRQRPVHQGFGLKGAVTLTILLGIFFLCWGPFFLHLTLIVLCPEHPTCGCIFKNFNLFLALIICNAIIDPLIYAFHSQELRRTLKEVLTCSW
Chain of hMC5-R (human) (P33032 whole entry): as the sequence (P33032 whole entry) above
Chain of hMC4-R (human) (P32245 whole entry): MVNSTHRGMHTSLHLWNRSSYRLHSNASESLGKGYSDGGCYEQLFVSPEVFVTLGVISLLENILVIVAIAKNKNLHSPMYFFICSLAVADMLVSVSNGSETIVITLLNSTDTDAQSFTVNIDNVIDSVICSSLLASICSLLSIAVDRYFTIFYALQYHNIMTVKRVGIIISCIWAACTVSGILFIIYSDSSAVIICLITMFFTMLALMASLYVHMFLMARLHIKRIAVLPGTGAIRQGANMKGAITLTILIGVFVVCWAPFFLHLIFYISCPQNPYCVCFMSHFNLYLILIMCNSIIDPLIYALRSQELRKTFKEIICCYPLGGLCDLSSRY
Chain of hMC3-R (human) (P41968 whole entry): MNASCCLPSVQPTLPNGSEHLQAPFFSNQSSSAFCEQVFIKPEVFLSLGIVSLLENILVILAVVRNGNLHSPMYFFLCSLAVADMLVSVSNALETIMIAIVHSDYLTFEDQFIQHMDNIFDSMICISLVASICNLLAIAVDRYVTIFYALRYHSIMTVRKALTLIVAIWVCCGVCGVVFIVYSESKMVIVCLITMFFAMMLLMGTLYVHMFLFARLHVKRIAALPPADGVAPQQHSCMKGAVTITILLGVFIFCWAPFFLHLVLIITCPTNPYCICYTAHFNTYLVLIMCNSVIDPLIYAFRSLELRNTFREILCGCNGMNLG

Binder | cAMP EC50 [1] | cAMP EC50 [2] | cAMP EC50 [3] | cAMP EC50 [4] | cAMP Kb [1] | cAMP Kb [4] | Ki [5]
B1 | 0.0492 nM | 1.73 nM | 0.76 nM | 0.199 nM |  |  | 
Ac-[Nle]CH[dF]RW[GABA][Pen]-NH2 (disulfide 2-8) [Ac-Nle-c(Cys-His-D-Phe-Arg-Trp-Gaba-Pen)-NH2] | 0.028 nM | 3.9 nM | 0.28 nM | 0.24 nM |  |  | 
B2 | 0.959 nM | 2140 nM | 8.43 nM | 32.4 nM |  |  | 
[Nle]CH[dF]RW[GABA]C-NH2 (disulfide 2-8) [Nle-c(Cys-His-D-Phe-Arg-Trp-Gaba-Cys)-NH2] | 0.021 nM | 1.7 nM | 0.37 nM | 0.1 nM |  |  | 
GCEH[dF]RWC-NH2 (disulfide 2-8; also: residues 1-2 joined in a hydantoin ring (C(O))) [c[Hydantoin(C(O)-(Gly-Cys))-Glu-His-D-Phe-Arg-Trp-Cys]-NH2] | 0.576 nM | 1780 nM | 14.5 nM | 21.8 nM |  |  | 
B3 |  | 582 nM | 67.1 |  | 46.5 | 439 | 
Ac-YRC[dA]H[dF]RWC-NH2 (disulfide 3-9) [Ac-Tyr-Arg-c(Cys-D-Ala-His-D-Phe-Arg-Trp-Cys)-NH2] |  |  |  |  |  |  | 714 nM
B4 | 0.0915 nM | 78.5 nM | 3.24 nM | 0.465 nM |  |  | 
B5 |  | 1800 nM | 37.9 |  | 41.1 | 112 | 
[dF]CH[d(Et)Tyr][hArg]W[βAla][dC]T-NH2 (disulfide 2-8) [D-Phe-c(Cys-His-D-(Et)Tyr-hArg-Trp-β-Ala-D-Cys)-Thr-NH2] | 5380 nM | 2.38 nM | 0.345 nM | 2.71 nM |  |  | 
B6 | 0.018 nM | 3.1 nM | 0.31 nM | 0.27 nM |  |  | 
B7 | 0.719 nM | 23.2 nM | 4.23 nM | 8.09 nM |  |  | 
